Assay results as given in patent US6306273A, “Methods and compositions for conducting processes in microfluidic devices” (Aclara BioSciences, Inc., priority 1999, dated 2001).
Ends that are not written are not given here. * marks the point of attachment. FITC = O=C1OC2(c3ccc(O)cc3Oc3cc(O)ccc32)c2ccc(NC(=S)*)cc21

Assay: Separation of FITC labeled peptides in dynamically coated chip; charge from migration time relative to EOF
Type: physicochemical
Conditions: 0.05% ammonium guar; determined by migration time relative to EOF
Excerpt: The coating procedure and the separation conditions were the same as described previously. The surface modifying polymer was 0.05% ammonium guar. Three FITC labeled peptides (obtained from AnaSpec, San Jose, Calif.), which differed by one charge from each other (FITC-KKAA, FITC-KKKA and FITC-KKKK), were separated and detected 0.5 cm from the injection point on the anodal side. […] FITC-KKKA and FITC-KKKK migrated electrophoretically against the EOF. The net charge of FITC-KKKK was greater than +1.

Row | Substance | net charge
1 | FITC-KKKA: FITC labeled peptide, SEQ ID NO:2, from AnaSpec ({FITC}-KKKA) | positive charged
2 | FITC-KKAA: FITC labeled peptide, SEQ ID NO:1, from AnaSpec ({FITC}-KKAA) | negatively charged
